The chains are these.
B1: humanized scFv 16-22-H05-sc02 (structural graft, STR) (scFv)
scFv: MDIQMTQSPSSLSASVGDRVTIKCQASQSIFSGLAWYQQKPGKAPKLLIYGASKLASGVPSRFSGSGSGTEFTLTISGLQPADFATYYCQSYYYSSSSSDGSYAFGGGTKLTVLGGGGGSGGGGSGGGGSGGGGSEVQLVESGGGLVQPGGSLRLSCKASGIDFNNYGIGWVRQAPGKGLEWITYIYPGFAITNFANSVKGRFTISSDNSKNTVYLQMNSLRAEDTAVYYCARDPVYATSSGYFDLWGQGTLVTVSS
notes: also called 16-22-H5-sc02; 16-22-H04-sc02 [sic]
B3: humanized scFv 16-22-H05-sc04 (CDR grafted light chain, structural grafted heavy chain, CDR/STR) (scFv)
scFv: MDIQMTQSPSSLSASVGDRVTITCQASQSIFSGLAWYQQKPGKAPKLLIYGASKLASGVPSRFSGSGSGTEFTLTISGLQPADFATYYCQSYYYSSSSSDGSYAFGGGTKLTVLGGGGGSGGGGSGGGGSGGGGSEVQLVESGGGLVQPGGSLRLSCKASGIDFNNYGIGWVRQAPGKGLEWITYIYPGFAITNFANSVKGRFTISSDNSKNTVYLQMNSLRAEDTAVYYCARDPVYATSSGYFDLWGQGTLVTVSS
notes: also called 16-22-05-sc04
B4: recombinant human TNFβ (Peprotech, Cat. No. 300-01B) (ligand, UniProt P01374 35-205, looked up)
chain: LPGVGLTPSAAQTARQHPKMHLAHSTLKPAAHLIGDPSKQNSLLWRANTDRAFLQDGFSLSNNSLLVPTSGIYFVYSQVVFSGKAYSPKATSSPLYLAHEVQLFSSQYPFHVPLLSSQKMVYPGLQEPWLHSMYHGAAFQLTQGDQLSTHTDGIPHLVLSPSTVFFGAFAL

Bounds are passed on as bounds.

Assay [1] deals with T1, recombinant human TNFα (Peprotech, Cat. No. 300-01) (human, UniProt P01375 77-233).
T1 construct: also called TNFαtrimer; biotinylated TNFα
T1 sequence (P01375 77-233 limits assumed): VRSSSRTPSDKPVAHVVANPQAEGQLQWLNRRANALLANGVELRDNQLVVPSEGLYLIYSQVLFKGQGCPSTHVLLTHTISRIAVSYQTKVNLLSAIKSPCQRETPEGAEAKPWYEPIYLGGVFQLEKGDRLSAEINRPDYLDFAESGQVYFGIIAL
Kind of assay: SPR (MASS-1), TNFα immobilized, scFv 45 to 1.4 nM. As to the method: (§1) In a second step, for the best performing scFvs, Single Injection Cycle Kinetics (SiCK) were measured from a single injection cycle by simultaneously injecting six analyte samples at different concentrations into each of the eight parallel channels in the MASS-1 system. […] The apparent dissociation (k_d) and association (k_a) rate constants and the apparent dissociation equilibrium constant (K_D) were calculated with the MASS-1 analysis software (Analyzer, Sierra Sensors) using one-to-one Langmuir binding model and quality of the fits was monitored based on Chi^2, which is a measure for the quality of the curve fitting.

Assay [2] concerns the target T1, recombinant human TNFα (Peprotech, Cat. …). Briefly: inhibition ELISA, blocking of TNFα binding to coated TNFRII-Fc; reference infliximab. Background: ELISA stands for enzyme-linked immunosorbent assay.
The target in assay [3] is B4. Kind of assay: competition ELISA, coated scFv, biotinylated TNFα, unlabeled TNFβ. On the procedure:
(§2) For this purpose, the scFvs were coated on a 96-well Maxisorp ELISA plate at a concentration of 1 μg/ml. […] To control precision of the response, the dose-response curves were analyzed in duplicate.

The target in assay [4] is T1, recombinant human TNFα (Peprotech, Cat. …). Kind of assay: inhibition ELISA, blocking of TNFα binding to coated TNFRII-Fc. An excerpt: (§3) For the first inhibition ELISA, the extracellular domain of TNFRI fused to the Fc region of human IgG (R&D Systems, Cat. No. 372-RI) was coated on a 96-well Maxisorp ELISA at a concentration of […]. […] All subsequent steps were identical for both assays.

Assay [5] deals with T2, recombinant Cynomolgus monkey TNFα (Sino Biological, Cat. No. 90018-CNAE) (Cynomolgus monkey (Macaca fascicularis), UniProt P79337 77-233). Briefly: cell-based or functional assay.
T2 sequence (P79337 77-233 limits assumed): as the sequence (P01375 77-233 limits assumed) above, with L37V, R44T, T72N, R138L counted along it
The target of assay [6] is T1, recombinant human TNFα (Peprotech, Cat. …). Kind of assay: cell-based or functional assay.
Assay [7] deals with T3, Rhesus monkey TNFα (R&D Systems, Cat. No. 1070-RM-025/CF) (Rhesus monkey (Macaca mulatta), UniProt P48094 77-233). Kind of assay: cell-based or functional assay.
T3 sequence (P48094 77-233 limits assumed): as the sequence (P01375 77-233 limits assumed) above, with R44T, T72N, R138L counted along it
Assay [8] deals with T2, recombinant Cynomolgus monkey TNFα …. Briefly: SPR, TNFα immobilized, scFv injected. On the procedure:
as §1, with “fitting. The smaller the value for the Chi^2 the more accurate is the fitting to the one-to-one Langmuir binding model. For affinity screenings, results were deemed valid if the Chi^2 was below 10 for the concentration analyzed. In cases where several scFv concentrations were analyzed, results were deemed valid if the average Chi^2 over all the concentrations tested was below 10.” for “fitting.”
(In general: In SPR one partner is held on a chip, and binding of the other changes the refractive index at the surface.)

The target in assay [9] is T3, Rhesus monkey TNFα (R&D Systems, Cat. …). Briefly: SPR, TNFα immobilized, scFv injected. On the procedure: as §1, with “fitting. The smaller the value for the Chi^2 the more accurate is the fitting to the one-to-one Langmuir binding model. For affinity screenings, results were deemed valid if the Chi^2 was below 10 for the concentration analyzed. In cases where several scFv concentrations were analyzed, results were deemed valid if the average Chi^2 over all the concentrations tested was below 10.” for “fitting.”

Assay [10] has the same target. Kind of assay: SPR (MASS-1), Rhesus TNFα immobilized, scFv 45 to 1.4 nM. As to the method:
as §1, with “fitting. The smaller the value for the Chi^2 the more accurate is the fitting to the one-to-one Langmuir binding model. For affinity screenings, results were deemed valid if the Chi^2 was below 10 for the concentration analyzed. In cases where several scFv concentrations were analyzed, results were deemed valid if the average Chi^2 over all the concentrations tested was below 10.” for “fitting.”

The target of assay [11] is T1, recombinant human TNFα (Peprotech, Cat. …). Briefly: inhibition ELISA, blocking of TNFα binding to coated TNFRI-Fc; reference infliximab.
Source text: as §3

Assay [12] concerns the target T2, recombinant Cynomolgus monkey TNFα …. Briefly: SPR (MASS-1), cyno TNFα immobilized, scFv 45 to 1.4 nM. As to the method: as §1, with “fitting. The smaller the value for the Chi^2 the more accurate is the fitting to the one-to-one Langmuir binding model. For affinity screenings, results were deemed valid if the Chi^2 was below 10 for the concentration analyzed. In cases where several scFv concentrations were analyzed, results were deemed valid if the average Chi^2 over all the concentrations tested was below 10.” for “fitting.”

Assay [13] concerns the target T1, recombinant human TNFα (Peprotech, Cat. …). Briefly: inhibition ELISA, blocking of TNFα binding to coated TNFRI-Fc.
Source text: as §3

The target is the same in assay [14]. Briefly: cell-based or functional assay. This is another data set of the same source.
Assay [15] has the same target. Kind of assay: SPR as in Example 2 under 2.1.1.
In assay [16] the target is B3. Kind of assay: competition ELISA, coated scFv, biotinylated TNFα 75 ng/ml, unlabeled TNFβ varied. On the procedure: as §2
Assay [17] deals with B1. The assay is described as above. On the procedure:
as §2

Assay [18] addresses B3. Briefly: competition ELISA, coated scFv, biotinylated TNFα, unlabeled TNFβ against unlabeled TNFα. As to the method:
as §2

Assay [19] concerns the target B1. The assay is described as above. On the procedure: as §2

With B1, in [1], the dissociation constant Kd turned out to be 0.045 nM, the koff stood at 4.3e-05 s⁻¹ and the kon stood at 960000 M⁻¹ s⁻¹. Further, in assay [2], the “rel. IC50 (IC50 infliximab / IC50 scFv, ng/mL)” value was determined as 5.7 fold and the “rel. IC90 (IC90 infliximab / IC90 scFv, ng/mL)” value came to 3.3 fold. In assay [3], the binding result is on record as “no binding (tested: 1250 µg/ml)”. The IC50 in [4] is 0.02 µg/mL. The “Species-specificity IC50 [ng/ml], L929 assay, cyno TNFα” value in assay [5] turned out to be 2.9 ng/mL. Moreover, in assay [6], the “Potency in L929 assay, rel. IC50 (IC50 infliximab / IC50 scFv, ng/ml)” value turned out to be 13.1 fold; the “Potency in L929 assay, rel. IC90 (IC90 infliximab / IC90 scFv, ng/ml)” value came out at 12.6 fold; the “Species-specificity IC50 [ng/ml], L929 assay, human TNFα” value worked out at 0.6 ng/mL. For the same molecule, in [7], the “Species-specificity IC50 [ng/ml], L929 assay, Rhesus TNFα” value was 3 ng/mL. In addition, in [8], the “fold difference in affinity against human TNFα” value is ~5 fold. The “fold difference in affinity against human TNFα” value in assay [9] is ~5 fold. Moreover, in assay [10], the affinity, expressed as Kd, was 0.23 nM; the koff came to 0.00015 s⁻¹; the kon was determined as 670000 M⁻¹ s⁻¹. Besides, in [11], the “rel. IC50 (IC50 infliximab / IC50 scFv, ng/mL)” value was determined as 3.5 fold and the “rel. IC90 (IC90 infliximab / IC90 scFv, ng/mL)” value came to 2.4 fold. Moreover, in assay [12], the Kd was determined as 0.2 nM, the koff worked out at 9.6e-05 s⁻¹ and the kon is 490000 M⁻¹ s⁻¹. Further, the IC50 in [13] turned out to be 0.0139 µg/mL.

B2: 16-22-H5-scFv (scFv format of Examples 3 to 7) (scFv)
chain: MDIQMTQSPSSLSASVGDRVTIKCQASQSIFSGLAWYQQKPGKAPKLLIYGASKLASGVPSRFSGSGSGTEFTLTISGLQPADFATYYCQSYYYSSSSSDGSYAFGGGTKLTVLGGGGGSGGGGSGGGGSGGGGSEVQLVESGGGLVQPGGSLRLSCKASGIDFNNYGIGWVRQAPGKGLEWITYIYPGFAITNFANSVKGRFTISSDNSKNTVYLQMNSLRAEDTAVYYCARDPVYATSSGYFDLWGQGTLVTVSS
On to B2, for which, in [14], the “Potency IC50 (nM), L929 assay” value was found to be 0.03 nM. In addition, in assay [15], the Kd was found to be 0.0379 nM, the koff is 3.38e-05 s⁻¹ and the kon is 893000 M⁻¹ s⁻¹.

Consider B3, for which, in assay [1], the Kd stood at 0.11 nM, the koff was determined as 7.1e-05 s⁻¹ and the kon came out at 680000 M⁻¹ s⁻¹. In assay [2], the “rel. IC50 (IC50 infliximab / IC50 scFv, ng/mL)” value was 3.5 fold and the “rel. IC90 (IC90 infliximab / IC90 scFv, ng/mL)” value came out at 1.5 fold. Further, the binding result in [3] is on record as “no binding (tested: 1250 µg/ml)”. In assay [4], the half-inhibitory concentration (IC50) was found to be 0.0326 µg/mL. For the same molecule, the “Species-specificity IC50 [ng/ml], L929 assay, cyno TNFα” value in [5] amounted to 3.5 ng/mL. For the same molecule, in assay [6], the “Potency in L929 assay, rel. IC50 (IC50 infliximab / IC50 scFv, ng/ml)” value was 14.6 fold; the “Potency in L929 assay, rel. IC90 (IC90 infliximab / IC90 scFv, ng/ml)” value was determined as 13.1 fold; the “Species-specificity IC50 [ng/ml], L929 assay, human TNFα” value is 0.5 ng/mL. Further, the “Species-specificity IC50 [ng/ml], L929 assay, Rhesus TNFα” value in [7] came out at 2.9 ng/mL. For the same molecule, in assay [11], the “rel. IC50 (IC50 infliximab / IC50 scFv, ng/mL)” value was 2.8 fold and the “rel. IC90 (IC90 infliximab / IC90 scFv, ng/mL)” value came out at 2.1 fold. Moreover, in [13], the IC50 was found to be 0.0177 µg/mL.

With B4, the IC50 in [16] and in assay [17] was > 1250 µg/mL each time. The “Target selectivity, rel. IC50 of TNFβ vs TNFα” value in [18] and in assay [19] was > 10000 fold in each case.

B5: humanized single-chain diabody of clone 16-22-H05 (other)
chain: MDIQMTQSPSSLSASVGDRVTIKCQASQSIFSGLAWYQQKPGKAPKLLIYGASKLASGVPSRFSGSGSGTEFTLTISGLQPADFATYYCQSYYYSSSSSDGSYAFGGGTKLTVLGGGGGSEVQLVESGGGLVQPGGSLRLSCKASGIDFNNYGIGWVRQAPGKGLEWITYIYPGFAITNFANSVKGRFTISSDNSKNTVYLQMNSLRAEDTAVYYCARDPVYATSSGYFDLWGQGTLVTVSSGGGGSGGGGSGGGGSGGGGSDIQMTQSPSSLSASVGDRVTIKCQASQSIFSGLAWYQQKPGKAPKLLIYGASKLASGVPSRFSGSGSGTEFTLTISGLQPADFATYYCQSYYYSSSSSDGSYAFGGGTKLTVLGGGGGSEVQLVESGGGLVQPGGSLRLSCKASGIDFNNYGIGWVRQAPGKGLEWITYIYPGFAITNFANSVKGRFTISSDNSKNTVYLQMNSLRAEDTAVYYCARDPVYATSSGYFDLWGQGTLVTVSS
notes: Single-chain diabody VLA-L1-VHB-L2-VLB-L3-VHA, bivalent for TNFα; L1 and L3 are G4S, L2 is (G4S)4; also called 16-22-H5-scDb; scDb
Turning to B5, the “Potency IC50 (nM), L929 assay” value in [14] is 0.01 nM. Also, in assay [15], the Kd was found to be 0.0215 nM, the koff was found to be 2.02e-05 s⁻¹ and the kon worked out at 940000 M⁻¹ s⁻¹.

B6: humanized IgG of clone 16-22-H05 (antibody, V domains shown)
VH: EVQLVESGGGLVQPGGSLRLSCKASGIDFNNYGIGWVRQAPGKGLEWITYIYPGFAITNFANSVKGRFTISSDNSKNTVYLQMNSLRAEDTAVYYCARDPVYATSSGYFDLWGQGTLVTVSS
VL: DIQMTQSPSSLSASVGDRVTIKCQASQSIFSGLAWYQQKPGKAPKLLIYGASKLASGVPSRFSGSGSGTEFTLTISGLQPADFATYYCQSYYYSSSSSDGSYAFGGGTKLTVLG
notes: Transiently expressed in CHO S cells and purified on Protein A; also called 16-22-H5-IgG
For the molecule B6, in [14], the “Potency IC50 (nM), L929 assay” value was found to be 0.02 nM. In assay [15], the Kd came out at 0.0417 nM, the koff is 7.92e-05 s⁻¹ and the kon was found to be 1.9e+06 M⁻¹ s⁻¹.

What is called Kd is a measure of binding affinity in units of concentration. Broadly, the koff is the rate constant with which the complex falls apart. A word on the kon: it is the second-order rate constant of association. A word on the IC50: it is the concentration needed to halve the response being measured.

The values are drawn from patent US12209122.
